# In patent publication EP2096121A1 (Institut Pasteur Of Shanghai, dated 2009):
# B1: GPI-scFv (TG15): scFv/hinge/his-tag/DAF, anti-HIV-1 gp41 single-chain Fv derived from human monoclonal antibody TG15, GPI-anchored (scFv)
# scFv: QVQLQQWGAGLLKPSETLSLTCAVYGDSFGGHHWSWIRQPPGKGLEWIGEINFLGNTNYNPSLKSRVAISKDTSKNQFSLTLNSATAADTAVYFCARRETMETASRKRAFDIWGQGTMETVTVSAGGGGSGGGGSGGGGSAELMETTQSPPTLSASVGDRVTITCRASQSLSGWVAWYQQKPGKAPKLLIYKASTLESGVPSRFSGSGSGTVFALTISSLQPDDSATYYCQQHSAFSSTFGQGTKLEIKRTPLGDTTHTSGHHHHHHGSGTTSGTTRLLSGHTCFTLTGLLGTLVTMETGLLT
# Key:
# [1] = target: HIV-1 envelope pDOL (subtype B) (HIV-1 (subtype B)); experiment: cell-based or functional assay
# [2] = target: HIV-1 envelope Q168 (subtype A) (HIV-1 (subtype A)); experiment: cell-based or functional assay
binder,measurement,setting,value
B1,"relative luciferase activity (RLA), single-cycle pseudotype infectivity, CEMss-GPI-scFv compared to CEMss-eGFP",[1],8 fold reduction
same,"relative luciferase activity (RLA), single-cycle pseudotype infectivity, CEMss-GPI-scFv compared to CEMss-eGFP",[2],180 fold reduction
